Reference: paper doi:10.1101/498196 (bioRxiv, 2018)
Positions count from the first letter of the chain named. In names and notes the source's numbering stands.

B1: hs PCDH1 EC1-4bc (domain or fragment)
chain: TRVVYKVPEEQPPNTLIGSLAADYGFPDVGHLYKLEVGAPYLRVDGKTGDIFTTETSIDREGLRECQNQLPGDPCILEFEVSITDLVQNGSPRLLEGQIEVQDINDNTPNFASPVITLAIPENTNIGSLFPIPLASDRDAGPNGVASYELQAGPEAQELFGLQVAEDQEEKQPQLIVMGNLDRERWDSYDLTIKVQDGGSPPRASSALLRVTVLDTNDNAPKFERPSYEAELSENSPIGHSVIQVKANDSDQGANAEIEYTFHQAPEVVRRLLRLDRNTGLITVQGPVDREDLSTLRFSVLAKDRGTNPKSARAQVVVTVKDMNDNAPTIEIRGIGLVTHQDGMANISEDVAEETAVALVQVSDRDEGENAAVTCVVAGDVPFQLRQASETGSDSKKKYFLQTTTPLDYEKVKDYTIEIVAVDSGNPPLSSTNSLKVQVVDVNDNA
B2: PCDH1 EC1-4Fc (Fc fusion)
chain: B1 chain
B3: PCDH1 EC1-4 C375S (domain or fragment)
chain: B1 chain with C375S
B4: hs PCDH1 EC1-4mc (domain or fragment)
chain: B1 chain
modifications: sugars observed at N248 (N-linked) and S430 (O-linked)
B5: PCDH1 EC1-5 C375S C548S (domain or fragment)
chain: TRVVYKVPEEQPPNTLIGSLAADYGFPDVGHLYKLEVGAPYLRVDGKTGDIFTTETSIDREGLRECQNQLPGDPCILEFEVSITDLVQNGSPRLLEGQIEVQDINDNTPNFASPVITLAIPENTNIGSLFPIPLASDRDAGPNGVASYELQAGPEAQELFGLQVAEDQEEKQPQLIVMGNLDRERWDSYDLTIKVQDGGSPPRASSALLRVTVLDTNDNAPKFERPSYEAELSENSPIGHSVIQVKANDSDQGANAEIEYTFHQAPEVVRRLLRLDRNTGLITVQGPVDREDLSTLRFSVLAKDRGTNPKSARAQVVVTVKDMNDNAPTIEIRGIGLVTHQDGMANISEDVAEETAVALVQVSDRDEGENAAVTSVVAGDVPFQLRQASETGSDSKKKYFLQTTTPLDYEKVKDYTIEIVAVDSGNPPLSSTNSLKVQVVDVNDNAPVFTQSVTEVAFPENNKPGEVIAEITASDADSGSNAELVYSLEPEPAAKGLFTISPETGEIQVKTSLDREQRESYELKVVAADRGSPSLQGTATVLVNVLDSNDND
B6: PCDH1 EC1-5 C375S C548S V115R (domain or fragment)
chain: B5 chain with V115R
B7: PCDH1 EC1-7Fc (Fc fusion)
chain: TRVVYKVPEEQPPNTLIGSLAADYGFPDVGHLYKLEVGAPYLRVDGKTGDIFTTETSIDREGLRECQNQLPGDPCILEFEVSITDLVQNGSPRLLEGQIEVQDINDNTPNFASPVITLAIPENTNIGSLFPIPLASDRDAGPNGVASYELQAGPEAQELFGLQVAEDQEEKQPQLIVMGNLDRERWDSYDLTIKVQDGGSPPRASSALLRVTVLDTNDNAPKFERPSYEAELSENSPIGHSVIQVKANDSDQGANAEIEYTFHQAPEVVRRLLRLDRNTGLITVQGPVDREDLSTLRFSVLAKDRGTNPKSARAQVVVTVKDMNDNAPTIEIRGIGLVTHQDGMANISEDVAEETAVALVQVSDRDEGENAAVTCVVAGDVPFQLRQASETGSDSKKKYFLQTTTPLDYEKVKDYTIEIVAVDSGNPPLSSTNSLKVQVVDVNDNAPVFTQSVTEVAFPENNKPGEVIAEITASDADSGSNAELVYSLEPEPAAKGLFTISPETGEIQVKTSLDREQRESYELKVVAADRGSPSLQGTATVLVNVLDCNDNDPKFMLSGYNFSVMENMPALSPVGMVTVIDGDKGENAQVQLSVEQDNGDFVIQNGTGTILSSLSFDREQQSTYTFQLKAVDGGVPPRSAYVGVTINVLDENDNAPYITAPSNTSHKLLTPQTRLGETVSQVAAEDFDSGVNAELIYSIAGGNPYGLFQIGSHSGAITLEKEIERRHHGLHRLVVKVSDRGKPPRYGTALVHLYVNETLANRTLLETLLGHSLDTPLDIDIAGDPEYERSKQRGN
B8: PCDH1 EC1-7Fc V115R (Fc fusion)
chain: B7 chain with V115R
B9: PCDH1 EC1-7Fc C375S C548S (Fc fusion)
chain: B7 chain with C375S, C548S

Tests used:
crystal structure = molecular target: the molecule itself; assay: crystal structure
bead aggregation assay = molecular target: the molecule itself; assay: bead aggregation assay
AUC = molecular target: the molecule itself; assay: AUC

| Protein | binding result (bead aggregation assay) | stoichiometry N (AUC) | also measured |
| --- | --- | --- | --- |
| B1 |  |  | binding result (crystal structure): binds |
| B2 | binds |  |  |
| B3 |  | 2 | Kd (AUC): < 5 µM |
| B4 |  |  | binding result (crystal structure): binds |
| B5 |  | 2 | Kd (AUC): < 5 µM |
| B6 |  | 2 |  |
| B7 | binds |  |  |
| B8 | binds |  |  |
| B9 | binds |  |  |
